Series [1] concerns the target T1, BmRelish RHD (RelRHD) (Bombyx mori, UniProt A0A8R2LW60 51-335).
T1 sequence: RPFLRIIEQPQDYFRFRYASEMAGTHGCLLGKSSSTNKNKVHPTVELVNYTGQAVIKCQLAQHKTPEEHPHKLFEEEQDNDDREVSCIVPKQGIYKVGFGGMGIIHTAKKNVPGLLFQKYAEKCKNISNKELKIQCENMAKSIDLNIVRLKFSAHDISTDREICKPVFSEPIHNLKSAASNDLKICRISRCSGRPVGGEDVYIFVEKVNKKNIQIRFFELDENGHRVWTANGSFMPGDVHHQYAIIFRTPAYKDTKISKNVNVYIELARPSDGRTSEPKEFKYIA
The series is described as follows: competition; mutant competitor against CRE2 probe; band not affected; Chemiluminescent EMSA Kit (Beyotime), manufacturer's instructions; buffer, salt, pH and temperature not stated. To be noted: protein: recombinant; tags: 6xHis (pET-30a); chain copies: 2; blunt. In general terms: Mobility shift assays separate free from complexed probe on a gel.

Series [2] deals with T1, BmRelish RHD (RelRHD). The series is described as follows: competition; mutant competitor against CRE4 probe; band not affected; Chemiluminescent EMSA Kit (Beyotime), manufacturer's instructions; buffer, salt, pH and temperature not stated. To be noted: protein: recombinant; tags: 6xHis (pET-30a); chain copies: 2; blunt.
For series [3], the target named is T1, BmRelish RHD (RelRHD). The series is described as follows: EMSA; cold probe weakens band; Chemiluminescent EMSA Kit (Beyotime), manufacturer's instructions; buffer, salt, pH and temperature not stated. To be noted: protein: recombinant; tags: 6xHis (pET-30a); chain copies: 2; label: 5' biotin (unlabelled as cold probe); blunt.

B1: Mut-CRE2 (dsDNA)
DNA 1: AATGTACATTATCTCCATCTCG
DNA 2: CGAGATGGAGATAATGTACATT
B1: the binding result in series [1] is reported as “no binding”.

B2: Mut-CRE4 (dsDNA)
DNA 1: AATAAGTGCCAAACACTCCATCTCGC
DNA 2: GCGAGATGGAGTGTTTGGCACTTATT
With B2, the binding result in series [2] was “no binding”.

B3: probe-CRE2 (dsDNA)
DNA 1: AATGTAGGTTATTTCCATCTCG
DNA 2: CGAGATGGAAATAACCTACATT
With B3, the binding result in series [3] is given as “binds”.

B4: probe-CRE4 (dsDNA)
DNA 1: AATAAGTGGGAATCTCTCCATCTCGC
DNA 2: GCGAGATGGAGAGATTCCCACTTATT
On to B4, for which the binding result in series [3] was “binds”.

For the origin of these results see PMC9499628, “Nuclear Factor Kappa B Promotes Ferritin Heavy Chain Expression in Bombyx mori in Response to B. mori Nucleopolyhedrovirus Infection”.
